The record followed here is the Immune Epitope Database (IEDB).

The target in one experiment is HLA-B*58:01. Put plainly: IEDB peptide-MHC binding, purified MHC/direct/fluorescence; filed as Kd, often an IC50 or EC50 that approximates it; ≥ and ≤ were set here for values at or beyond the usual limits of such assays.
In a further experiment the target is HLA-A*31:01. Described as above.
The target in experiment [1] is HLA-B*39:01. Described as above.
The next experiment has as its target HLA-B*44:02. Described as above.
A further experiment deals with HLA-B*48:01. The description is as above.
Experiment [2] deals with HLA-B*57:01. The description is as above.
A further experiment concerns the target HLA-B*08:01. The description is as above.
Another experiment has as its target HLA-B*08:02. The experiment is described as above.
For another experiment, the target named is HLA-B*40:01. The experiment is described as above.
The next experiment concerns the target HLA-A*69:01. Described as above.
The target in another experiment is HLA-B*15:17. Described as above. The settings on record: source organism: Camelpox virus M-96.
The target in a further experiment is HLA-A*11:01. Described as above.
The target in another experiment is HLA-A*01:01. The description is as above.
Another experiment concerns the target HLA-A*68:02. Described as above. Particulars: source organism: Camelpox virus M-96.
A further experiment concerns the target HLA-B*07:02. The description is as above.
In a further experiment the target is HLA-B*27:05. The description is as above.
Another experiment concerns the target HLA-B*15:09. The description is as above.
Experiment [3] has as its target HLA-A*26:01. The experiment is described as above.
In experiment [4] the target is HLA-B*18:01. The description is as above.
For experiment [5], the target named is HLA-A*02:01. Briefly: IEDB peptide-MHC binding, purified MHC/competitive/fluorescence; filed as Kd, often an IC50 or EC50 that approximates it; ≥ and ≤ were set here for values at or beyond the usual limits of such assays. Particulars: source organism: Vaccinia virus WR.
A further experiment concerns the target HLA-C*05:01. Briefly: IEDB peptide-MHC binding, purified MHC/direct/fluorescence; filed as Kd, often an IC50 or EC50 that approximates it; ≥ and ≤ were set here for values at or beyond the usual limits of such assays.
For another experiment, the target named is HLA-C*03:03. The experiment is described as above.
Experiment [6] has as its target HLA-B*39:01. Briefly: IEDB peptide-MHC binding, purified MHC/competitive/fluorescence; filed as Kd, often an IC50 or EC50 that approximates it; ≥ and ≤ were set here for values at or beyond the usual limits of such assays.
For experiment [7], the target named is HLA-A*03:01. Put plainly: IEDB peptide-MHC binding, purified MHC/direct/fluorescence; filed as Kd, often an IC50 or EC50 that approximates it; ≥ and ≤ were set here for values at or beyond the usual limits of such assays.
Experiment [8] has as its target HLA-A*02:01. Described as above.
Experiment [9] deals with HLA-B*46:01. Described as above.
The target of a further experiment is HLA-B*15:01. The experiment is described as above.
Experiment [10] deals with HLA-A*29:02. The experiment is described as above. Particulars: source organism: West Nile virus.
Experiment [11] addresses HLA-A*03:01. Put plainly: IEDB peptide-MHC binding, purified MHC/competitive/fluorescence; filed as Kd, often an IC50 or EC50 that approximates it; ≥ and ≤ were set here for values at or beyond the usual limits of such assays. The settings on record: source organism: Entamoeba histolytica HM-1:IMSS.
The target of experiment [12] is HLA-B*57:01. The experiment is described as above. The settings on record: source organism: Entamoeba histolytica HM-1:IMSS.
The target of experiment [13] is HLA-B*46:01. The experiment is described as above. Particulars: source organism: Entamoeba histolytica HM-1:IMSS.
For the next experiment, the target named is HLA-B*27:03. Described as above. The settings on record: source organism: Entamoeba histolytica HM-1:IMSS.
For the next experiment, the target named is HLA-A*02:11. The description is as above. The settings on record: source organism: Entamoeba histolytica HM-1:IMSS.
The target of a further experiment is HLA-A*02:19. Described as above. Particulars: source organism: Entamoeba histolytica HM-1:IMSS.
The target in experiment [14] is HLA-A*29:02. The experiment is described as above. Particulars: source organism: Entamoeba histolytica HM-1:IMSS.
Experiment [15] has as its target HLA-A*26:01. Described as above. Particulars: source organism: Entamoeba histolytica HM-1:IMSS.
The target of experiment [16] is HLA-B*18:01. The experiment is described as above. The settings on record: source organism: Entamoeba histolytica HM-1:IMSS.
Where [17] appears, read: source organism: Camelpox virus M-96.
Setting [18] is: source organism: Campylobacter jejuni subsp. jejuni NCTC 11168 = ATCC 700819.
Setting [19] is: source organism: Bacillus thuringiensis str. Al Hakam.
The mark [20] stands for this setting: source organism: West Nile virus.
Setting [21] is: source organism: West Nile virus strain PTRoxo.
Setting [22] is: source organism: Burkholderia mallei.
[23] abbreviates: source organism: Burkholderia mallei ATCC 23344.

Some results are limits rather than exact numbers.

In the case of KELENEYYF, the Kd in the experiment with HLA-B*58:01 (setting [17]), with HLA-A*31:01 (setting [17]), with HLA-B*39:01 [1] (source organism: Variola virus), with HLA-B*44:02 (setting [17]), in the experiment with HLA-B*48:01 (setting [17]) and with HLA-B*57:01 [2] (setting [17]) was at least 20 µM in each case. For the same sequence, the Kd (usually the constant that tells how readily two partners part at equilibrium) with HLA-B*08:01 (source organism: Variola virus) was at least 20 µM; with HLA-B*08:02 (source organism: Variola virus) it was at least 20 µM; with HLA-B*40:01 (setting [17]) it was 0.0183 µM; with HLA-A*69:01 (setting [17]), at least 20 µM; in the experiment with HLA-B*15:17, at least 20 µM; in the experiment with HLA-A*11:01 (setting [17]) it was at least 20 µM. Moreover, the Kd in the experiment with HLA-A*01:01 (setting [17]), with HLA-A*68:02, with HLA-B*07:02 (setting [17]), with HLA-B*27:05 (setting [17]), with HLA-B*15:09 (source organism: Variola virus) and with HLA-A*26:01 [3] (source organism: Variola virus) was at least 20 µM throughout. Further, the Kd in the experiment with HLA-B*18:01 [4] (setting [17]) is 0.0198 µM; in the experiment with HLA-A*02:01 [5], at least 20 µM.
As to LLDEPTNHL, the Kd with HLA-C*05:01 (setting [18]) came out at 0.008 µM; in the experiment with HLA-A*69:01 (source organism: Bacillus anthracis), 0.105 µM; with HLA-C*03:03 (setting [18]), 2.91 µM.
As to YSAWGGYNL, the values for the Kd with HLA-C*05:01 (setting [19]) and with HLA-B*39:01 [6] (setting [19]) were 4.18 µM and 0.404 µM, respectively.
Turning to GHGTVVLEL, the Kd with HLA-B*58:01 (setting [20]), with HLA-A*31:01 (setting [20]), with HLA-A*03:01 [7] (setting [20]), with HLA-A*02:01 [8] (setting [20]), with HLA-B*44:02 (setting [20]) and with HLA-B*57:01 [2] (setting [20]) was at least 20 µM each time. Also, the Kd in the experiment with HLA-B*46:01 [9] (setting [20]), with HLA-B*15:01 (setting [20]), in the experiment with HLA-B*40:01 (setting [20]), in the experiment with HLA-A*69:01 (setting [20]), with HLA-A*01:01 (setting [20]) and in the experiment with HLA-B*07:02 (setting [20]) was at least 20 µM in each case. Also, the Kd with HLA-B*27:05 (setting [20]) is at least 20 µM; with HLA-B*15:09 (setting [21]), 4.55 µM; with HLA-B*18:01 [4] (setting [20]) it was at least 20 µM; with HLA-B*39:01 [6] (source organism: Murray Valley encephalitis virus), 0.0067 µM.
For YLVDCGAEL, the Kd with HLA-C*03:03 (source organism: Mycobacterium tuberculosis str. Haarlem) was at most 0.001 µM.
Take ILDTGTIQL: the Kd with HLA-C*05:01 (source organism: Homo sapiens) came out at 0.019 µM; in the experiment with HLA-C*03:03 (source organism: Homo sapiens), 1.27 µM.
As for TEGEGRVIL, the Kd in the experiment with HLA-B*58:01 (setting [20]), with HLA-A*31:01 (setting [20]), with HLA-A*03:01 [7] (setting [20]), with HLA-B*39:01 [1] (setting [20]), in the experiment with HLA-A*02:01 [8] (setting [20]) and with HLA-B*44:02 (setting [20]) was at least 20 µM throughout. For the same sequence, the Kd in the experiment with HLA-B*48:01 (setting [20]) is at least 20 µM; in the experiment with HLA-B*57:01 [2] (setting [20]), at least 20 µM; with HLA-B*46:01 [9] (setting [20]), at least 20 µM; with HLA-B*15:01 (setting [20]), at least 20 µM; in the experiment with HLA-B*40:01 (setting [20]), 0.0459 µM; with HLA-A*69:01 (setting [20]) it was at least 20 µM. Moreover, the Kd with HLA-A*11:01 (setting [20]), in the experiment with HLA-A*01:01 (setting [20]), with HLA-B*07:02 (setting [20]), in the experiment with HLA-B*27:05 (setting [20]), in the experiment with HLA-B*15:09 (setting [21]) and with HLA-A*29:02 [10] was at least 20 µM in each case. In addition, the Kd with HLA-B*18:01 [4] (setting [20]) is 1.01 µM.
With EARGKEKLL, the Kd with HLA-B*58:01 (setting [22]) was at least 20 µM; in the experiment with HLA-A*03:01 [7] (setting [22]) it was at least 20 µM; with HLA-A*02:01 [8] (setting [22]), at least 20 µM; in the experiment with HLA-B*46:01 [9] (setting [22]) it was at least 20 µM; in the experiment with HLA-B*15:01 (setting [22]), at least 20 µM; in the experiment with HLA-B*08:01 (setting [23]) it was 5.88 µM. Besides, the Kd with HLA-B*08:02 (setting [23]), in the experiment with HLA-B*40:01 (setting [22]), with HLA-A*11:01 (setting [22]), with HLA-A*01:01 (setting [22]), in the experiment with HLA-B*07:02 (setting [22]) and with HLA-B*27:05 (setting [22]) was at least 20 µM each time. For the same sequence, the equilibrium dissociation constant (Kd) with HLA-B*15:09 (setting [23]) and in the experiment with HLA-A*26:01 [3] (setting [23]) was at least 20 µM each time.
For CLSPVVAGL, the Kd in the experiment with HLA-A*03:01 [11] is at least 20 µM; in the experiment with HLA-B*57:01 [12] it was at least 20 µM; in the experiment with HLA-B*46:01 [13], at least 20 µM; with HLA-B*27:03 it was at least 20 µM; in the experiment with HLA-A*02:11 it was at most 0.0001 µM; with HLA-A*02:19 it was 0.0008 µM. Also, the Kd with HLA-A*29:02 [14] was 0.219 µM; in the experiment with HLA-A*26:01 [15] it was at least 20 µM; with HLA-B*18:01 [16], at least 20 µM.
